± gives the standard error. Fewer inactive variants are shown than the library holds.
B1: glmS ribozyme (parent)
chain: AUAAAAGCGCCAGAACUACAGAAAUGUAGUUGACGAGGAGGAGGUUUAUCGAAUUUUCGGCGGAUGCCUCCAAA

Key:
Conditions in all cases: with glucosamine-6-phosphate
glucosamine-6-phosphate [1] = variants of: B1; assay: self-cleavage kobs at 640 uM GlcN6P; higher = faster cleavage; RNA array
In short: (§1)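 In situ transcription by E. coli RNA polymerase produced barcoded ribozyme variants on sequenced MiSeq chips, and a hybridised Cy3 probe tracked them at 37 °C. Glucosamine-6-phosphate was flowed in at 40 μM to 10 mM in HEPES/KCl/Mg(OAc)2 buffer. kcat and KM were taken from weighted Michaelis–Menten fits of kobs values from exponential decay fits.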

glucosamine-6-phosphate [2] = variants of: B1; assay: self-cleavage kobs at 2500 uM GlcN6P; higher = faster cleavage; RNA array
In short: as §1

glucosamine-6-phosphate [3] = variants of: B1; assay: self-cleavage kobs at 10000 uM GlcN6P; higher = faster cleavage; RNA array
In short: as §1

Variant | self-cleavage kobs at 640 uM GlcN6P (glucosamine-6-phosphate [1]) [s⁻¹] | self-cleavage kobs at 2500 uM GlcN6P (glucosamine-6-phosphate [2]) [s⁻¹] | self-cleavage kobs at 10000 uM GlcN6P (glucosamine-6-phosphate [3]) [s⁻¹]
A12U A48C | 0.000142 ± 2.1e-05 | 0.000341 ± 5.1e-05 | 
A14U A15C A33U U49C C50G U69A | 0.0012 ± 0.00039 | 0.000218 ± 9.1e-05 | 
A12U A53C C67U | 0.00253 ± 0.0006 |  | 
C11U U31C G41C U49C G62A | < 1e-05 |  | 
G13C G37U G43C | < 1e-05 | < 1e-05 | 
A15G U45A A53G | 0.0131 ± 0.0027 |  | 
A14U G29C G51U | < 1e-05 |  | 
G13U A15U G32U G62C C68A | 7.42e-05 ± 3.5e-05 |  | 
A12U U47G A52U C61U | < 1e-05 |  | 
A12G A39G C50A | < 1e-05 |  | 
A12U C50U G59U | < 1e-05 | < 1e-05 | < 1e-05
A12G U45G A52U C61G | < 1e-05 |  | 
A15G G38U G59C | < 1e-05 |  | 
G13C A33G G40U U49G G63A | < 1e-05 |  | 
A15U C50A C68U | 7.76e-05 ± 2.5e-05 |  | 
C11G U45C U46C C61U | < 1e-05 | < 1e-05 | 
A12C G26A G51U A53G C68G | 0.000191 ± 5.2e-05 | 0.000139 ± 4.6e-05 | 
A12G A48U G63U | < 1e-05 |  | 
A14U U30G G40A | 0.000126 ± 3.6e-05 | 0.000424 ± 0.00014 | 
A14C A42G G43A U69C C70U | < 1e-05 |  | 
A15G A36U G41U C70U | < 1e-05 | < 1e-05 | 
G13A A14C A42G C70U | 4.53e-05 ± 1.8e-05 | 9.61e-05 ± 1.4e-05 | 
G13U C16U G29A | 0.000601 ± 0.00017 |  | 

Variant | self-cleavage kobs at 640 uM GlcN6P (glucosamine-6-phosphate [1]) [s⁻¹] | self-cleavage kobs at 2500 uM GlcN6P (glucosamine-6-phosphate [2]) [s⁻¹] | self-cleavage kobs at 10000 uM GlcN6P (glucosamine-6-phosphate [3]) [s⁻¹]
A14C C16U G44U U69G | < 1e-05 |  | 
C11U G41A G60U G63U C70U | < 1e-05 | < 1e-05 | 
A12G A39C G41U U47A A48U C61U A64U | < 1e-05 | < 1e-05 | 
A15G C16A C58A A64U C70U | 8e-05 ± 1.9e-05 |  | 
A15U C50G G66C C71G | 7.22e-05 ± 2.8e-05 | 9.27e-05 ± 3e-05 | 
A14G G43C G51U A64G | < 1e-05 |  | 
A12U A33G A48C | < 1e-05 | < 1e-05 | 
A12C G35A C70U | < 1e-05 | < 1e-05 | 
A15G U45C U57C | < 1e-05 |  | 
A14U G29U U56G | 0.000178 ± 4.1e-05 | 0.000206 ± 7.4e-05 | 
A15C G35U G41A U65C C68A | < 1e-05 | < 1e-05 | 
A12U A48C C58A | < 1e-05 | < 1e-05 | 
A12U C19U U69A | 0.000392 ± 0.0001 | 0.000303 ± 6e-05 | 
A12U G35U | < 1e-05 |  | 
G13A G32C G43C C68G | 7.7e-05 ± 2.2e-05 | 0.000154 ± 5e-05 | 
C11U A36C A39G C67G | < 1e-05 | < 1e-05 | 
G13U G40A G43C U49C C68G | < 1e-05 |  | 
A12G U54A | 0.000125 ± 2.3e-05 | 0.000221 ± 4.5e-05 | 0.000878 ± 0.00013
A12G U57A G60U | < 1e-05 | < 1e-05 | < 1e-05
A14C G44A A64U | < 1e-05 |  | 
A15U U45C G66U C67G | 7.69e-05 ± 2.9e-05 | 0.000193 ± 5.8e-05 | 
A12G A39U A42C | 8.45e-05 ± 2.4e-05 | 0.000119 ± 2.7e-05 | 
A14G U30G A64G | 0.00462 ± 0.0017 | 0.00995 ± 0.0044 | 

Variant | self-cleavage kobs at 640 uM GlcN6P (glucosamine-6-phosphate [1]) [s⁻¹] | self-cleavage kobs at 2500 uM GlcN6P (glucosamine-6-phosphate [2]) [s⁻¹] | self-cleavage kobs at 10000 uM GlcN6P (glucosamine-6-phosphate [3]) [s⁻¹]
G13U C16U A33C C68U | < 1e-05 |  | 
A15G G40U C50G G60C | < 1e-05 |  | 
A14G G35U G37C U47C | < 1e-05 |  | 
C11U A12C U31G G32U U57G | < 1e-05 |  | 
A12C G32C U57C C58U | < 1e-05 | < 1e-05 | 
A14U A15G G37A | 0.000119 ± 2.8e-05 | 0.000224 ± 4.9e-05 | 
A14C A36U G38A U69A | 7.64e-05 ± 1.8e-05 |  | 
G13U U31C G41A | < 1e-05 |  | 
G13A A52C C58G U69G | 4.44e-05 ± 2e-05 |  | 
A15G C34A A64C | < 1e-05 |  | 
G13U C50G C67G | 0.000305 ± 0.00014 | 7.52e-05 ± 1.5e-05 | 
A14U A48U G51A A52G | < 1e-05 | < 1e-05 | 
A15C G37A A42G | 8.69e-05 ± 3e-05 | 0.000171 ± 4.6e-05 | 
A12U G13U G32U A64G | < 1e-05 |  | 
A14U C61A G66A | < 1e-05 |  | 
A14G U69A C70A | 5.74e-05 ± 2.2e-05 | 8.42e-05 ± 1.9e-05 | 
A14C G43U U56A C68U | 9.14e-05 ± 2.6e-05 | 0.000133 ± 3.7e-05 | 
C16A A39U U54C | 0.000107 ± 2.9e-05 | 0.000434 ± 9.7e-05 | 0.000811 ± 0.00017
C11G G44U U46G U47A G59A A64U C67A | < 1e-05 |  | 
A12U A15G G41A C61A | < 1e-05 |  | 
A12C A52U U57A | 0.000131 ± 2.7e-05 | 0.000458 ± 5.1e-05 | 
G13U G29U G32A | 0.000242 ± 7e-05 |  | 

Reference: the supplement of paper PMC7125110
